Measurements: patent US20100087005A1, “AUXILIARY REAGENT FOR GENE TRANSFER” (priority 2006, published 2010)

System: transgenic mice overexpressing full-length Del-1
Test: In vivo gene transfer of human thermostable alkaline phosphatase gene (TransIT In Vivo Gene Delivery System) in Del-1 transgenic mice, serum AP activity
Parameters: species or system mouse
Conditions: tail vein injection of human thermostable alkaline phosphatase gene, serum 24 hours later, heat treated 65° C. 30 minutes, FIG. 5
Protocol: According to the ordinary method, transgenic mice in which cDNA of full-length Del-1 (i.e., DNA consisting of the nucleotide sequence represented by SEQ ID NO: 9) is overexpressed were prepared (see Hidai et al., Anatomical Record A, vol. 287A, pp. 1165-1175). Del-1 protein produced in cells of the transgenic mice is a protein having the amino acid sequence represented by SEQ ID NO: 10 (including the signal peptide). Del-1 protein secreted from the cells to the outside thereof is a protein having an amino acid sequence consisting of amino acid residues at positions 26 to 480 in the amino acid sequence represented by SEQ ID NO: 10 (excluding the signal peptide). […] Using 20 μl of serum after the heat treatment, the activity of exogenous alkaline phosphatase (human thermostable alkaline phosphatase) was measured. In the measurement of the activity, 20 μl of serum was mixed with 200 μl of 1 mg/ml p-nitrophenyl phosphate, and after causing reaction at room temperature for 30 minutes to 1 hour, the absorbance at 405 nm was measured using a […] (BioRad). […]
Measurement values of the alkaline phosphatase activity are expressed by average value±SEM (standard error of the mean). The measurement values obtained from the control group into which alkaline phosphatase gene was not injected are regarded as 1, and the measurement values of the transgenic mice were calculated based thereon.

B1: full-length Del-1: Del-1 protein, SEQ ID NO: 10, overexpressed in transgenic mice; secreted form residues 26 to 480 (protein, listed as Mus musculus)
chain: MKHLVAAWLLVGLSLGVPQFGKGDICNPNPCENGGICLSGLADDSFSCECPEGFAGPNCSSVVEVASDEEKPTSAGPCIPNPCHNGGTCEISEAYRGDTFIGYVCKCPRGFNGIHCQHNINECEAEPCRNGGICTDLVANYSCECPGEFMGRNCQYKCSGPLGIEGGIISNQQITASSTHRALFGLRKWYPYYARLNKKGLINAWTAAENDRWPWIQINLQRKMRVTGVITQGAKRIGSPEYIKSYKIAYSNDGKTWAMYKVKGTNEEMVFRGNVDNNTPYANSFTPPIKAQYVRLYPQICRRHCTLRMELLGCELSGCSEPLGMKSGHIQDYQITASSVFRTLNMDMFTWEPRKARLDKQGKVNAWTSGHNDQSQWLQVDLLVPTKVTGIITQGAKDFGHVQFVGSYKLAYSNDGEHWMVHQDEKQRKDKVFQGNFDNDTHRKNVIDPPIYARFIRILPWSWYGRITLRSELLGCAEEE
- exogenous alkaline phosphatase activity in serum, transgenic mouse (TG) vs wild-type mouse (WT): about twice as high as that of the wild-type mouse (WT)
